In test [1] the target is T1, dog PTK7 on dog cancer cell lines (dog, UniProt A0A8I3N574 31-1070).
T1 construct: whole, on cells; Endogenous protein on dog tumour cell lines; also called PTK7 on CMT-U27 and D-17 cells; dog cancer cells
T1 sequence: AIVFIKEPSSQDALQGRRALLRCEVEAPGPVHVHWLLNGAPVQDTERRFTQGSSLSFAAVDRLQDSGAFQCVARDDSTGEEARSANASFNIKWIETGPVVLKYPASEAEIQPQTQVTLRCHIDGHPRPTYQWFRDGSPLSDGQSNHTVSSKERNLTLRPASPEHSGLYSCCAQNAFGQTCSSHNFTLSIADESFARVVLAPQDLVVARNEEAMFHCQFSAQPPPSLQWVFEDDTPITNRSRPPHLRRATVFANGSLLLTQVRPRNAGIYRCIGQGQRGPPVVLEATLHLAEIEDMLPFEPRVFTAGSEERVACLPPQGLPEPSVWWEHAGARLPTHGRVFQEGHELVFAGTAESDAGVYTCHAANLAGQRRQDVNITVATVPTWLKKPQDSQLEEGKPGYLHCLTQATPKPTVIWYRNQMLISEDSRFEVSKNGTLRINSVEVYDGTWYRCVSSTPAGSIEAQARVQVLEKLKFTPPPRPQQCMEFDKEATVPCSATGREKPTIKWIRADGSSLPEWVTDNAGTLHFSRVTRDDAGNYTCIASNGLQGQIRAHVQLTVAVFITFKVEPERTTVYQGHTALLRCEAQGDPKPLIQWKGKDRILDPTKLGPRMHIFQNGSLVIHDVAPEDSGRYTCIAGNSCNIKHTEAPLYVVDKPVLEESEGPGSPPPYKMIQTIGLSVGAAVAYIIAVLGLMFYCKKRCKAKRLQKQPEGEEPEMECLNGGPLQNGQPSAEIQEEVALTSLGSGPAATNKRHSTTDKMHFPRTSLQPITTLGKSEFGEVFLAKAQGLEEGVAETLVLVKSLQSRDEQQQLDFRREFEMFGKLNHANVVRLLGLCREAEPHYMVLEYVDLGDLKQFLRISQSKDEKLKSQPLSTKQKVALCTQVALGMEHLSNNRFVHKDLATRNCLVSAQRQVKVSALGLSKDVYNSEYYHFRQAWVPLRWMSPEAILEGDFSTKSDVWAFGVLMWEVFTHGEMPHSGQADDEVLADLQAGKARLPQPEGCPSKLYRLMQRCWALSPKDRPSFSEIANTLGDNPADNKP
Kind of test: flow cytometry, D-17 dog cells, Ab 5 ug/mL. The method, then: (§1) The binding activity of anti-PTK7 antibodies to cancer cell lines was verified by flow cytometry. […] Purified anti-PTK7 antibody with a concentration of 5 μg/mL was added to each well and was incubated at 4° C. for 30 minutes. […] The cells were collected, and the mean fluorescence intensity (MFI) was determined. Human IgG1 was used as ISO control.

The target in test [2] is T2, human PTK7 on human cancer cell lines (human, UniProt Q13308 31-1070).
T2 construct: Endogenous PTK7 of human tumour cell lines; also called PTK7 on A-431, NCI-H520, NCI-N87, SK-OV-3, BT-20, HCC1954, NCI-H226, NCI-H358, HCT116, PC-3, NCI-H292, NCI-H1975 cells
T2 sequence: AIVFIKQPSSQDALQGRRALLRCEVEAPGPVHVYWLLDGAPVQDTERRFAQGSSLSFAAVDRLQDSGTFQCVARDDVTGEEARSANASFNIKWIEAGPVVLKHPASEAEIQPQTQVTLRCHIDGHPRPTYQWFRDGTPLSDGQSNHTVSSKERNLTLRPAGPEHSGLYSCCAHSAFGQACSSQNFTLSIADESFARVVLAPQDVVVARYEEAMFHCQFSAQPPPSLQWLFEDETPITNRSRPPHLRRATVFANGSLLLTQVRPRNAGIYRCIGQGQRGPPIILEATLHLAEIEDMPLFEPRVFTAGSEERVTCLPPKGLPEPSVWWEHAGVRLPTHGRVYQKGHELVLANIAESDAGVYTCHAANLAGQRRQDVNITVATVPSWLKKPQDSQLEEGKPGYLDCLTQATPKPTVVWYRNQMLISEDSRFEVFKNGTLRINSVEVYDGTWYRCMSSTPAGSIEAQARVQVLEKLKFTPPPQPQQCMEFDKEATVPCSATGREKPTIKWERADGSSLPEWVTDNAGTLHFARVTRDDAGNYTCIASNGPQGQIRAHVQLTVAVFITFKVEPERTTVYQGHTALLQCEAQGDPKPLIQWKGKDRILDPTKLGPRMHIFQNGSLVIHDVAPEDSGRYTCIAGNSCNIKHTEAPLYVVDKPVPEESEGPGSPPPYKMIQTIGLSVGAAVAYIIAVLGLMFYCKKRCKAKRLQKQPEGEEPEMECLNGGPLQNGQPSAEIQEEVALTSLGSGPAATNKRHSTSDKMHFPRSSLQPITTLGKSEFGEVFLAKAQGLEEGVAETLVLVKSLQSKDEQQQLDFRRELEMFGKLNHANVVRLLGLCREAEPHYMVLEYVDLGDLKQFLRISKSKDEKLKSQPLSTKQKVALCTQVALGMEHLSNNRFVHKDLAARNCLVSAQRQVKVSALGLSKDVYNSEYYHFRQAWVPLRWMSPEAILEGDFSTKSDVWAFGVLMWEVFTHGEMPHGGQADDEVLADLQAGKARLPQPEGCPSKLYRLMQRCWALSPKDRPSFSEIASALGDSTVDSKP
Kind of test: flow cytometry, SK-OV-3 cells, Ab 5 ug/mL. The method, then:
as §1

For test [3], the target named is T1, dog PTK7 on dog cancer cell lines. Put plainly: flow cytometry, CMT-U27 dog cells, Ab 5 ug/mL. The method, then:
as §1

B1: 1F2 (antibody, V domains shown)
VH: QVQLVQSGGGLVQPGGSLRLSCAASGFTFSRYEMNWVRQAPGKGLEWVSYINSIGSAINYADSVKGRFTISRDNAKNSLYLQMRSLRAEDTAVYYCVREDNWNPGYWGQGTLVTVSS
VL: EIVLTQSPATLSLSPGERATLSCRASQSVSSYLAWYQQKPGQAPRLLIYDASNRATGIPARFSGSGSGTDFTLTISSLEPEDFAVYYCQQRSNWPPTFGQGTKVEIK
notes: also called anti-PTK7 antibody 1F2
B1: the values for the MFI in test [1], in test [2] and in test [3] were 64100, 210000 and 45800, respectively.

B2: 1A11 (antibody, V domains shown)
VH: QVQLVQSGPGLVKPSETLSLTCTVSGGSINSYYWNWIRQPPGKGLEWIGYIYYSGSTNYNPSLKSRVTISVDTSKNQFSLKLSSVTAADTAVYYCARDPHDYIRGHFDLWGRGTLFTVSS
VL: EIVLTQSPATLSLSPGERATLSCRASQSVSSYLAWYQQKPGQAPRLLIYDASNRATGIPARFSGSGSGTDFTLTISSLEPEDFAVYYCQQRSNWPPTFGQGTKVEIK
notes: also called anti-PTK7 antibody 1A11
B2: the MFI stood at 90600 in test [1], 319000 in test [2] and 75600 in test [3].

B3: 1A7 (antibody, human IgG1, V domains shown)
VH: QVQLVESGGGVVQPGRSLRLSCAASGFTFSNYGMHWVRQAPGKGLEWVAVIYYDGSNKFYADSVKGRFTISRDNSKNTLYLQMSSLRAEDTAVYYCARDVAPPGSRAEYFHHWGQGTLVTVSS
VL: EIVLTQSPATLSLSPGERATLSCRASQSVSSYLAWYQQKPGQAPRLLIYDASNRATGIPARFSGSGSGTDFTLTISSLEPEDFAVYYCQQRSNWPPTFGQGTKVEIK
notes: also called anti-PTK7 antibody 1A7
In the case of B3, the MFI came to 120000 in test [1], 197000 in test [2] and 56700 in test [3].

B4: 2F5 (antibody, V domains shown)
VH: QVQLVESGGGVVQPGRSLRLSCVASGFTFSNYGMHWVRQAPGKGLEWVAIIYYDGSNKYYADSVKGRFTISRDNSKNTLYLQMNSLRAEDTAVYYCARDVAAAGSRAEYLHHWGQGTLVTVSS
VL: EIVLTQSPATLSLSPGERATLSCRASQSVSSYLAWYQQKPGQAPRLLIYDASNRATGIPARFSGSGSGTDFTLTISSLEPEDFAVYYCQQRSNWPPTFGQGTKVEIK
notes: also called anti-PTK7 antibody 2F5
As for B4, the MFI in test [1] is 131000; in test [2], 178000; in test [3] it was 81300.

B5: 2A5 (antibody, V domains shown)
VH: QVQLVQSGGGVVQPGRSLRLSCAASGFTFSNYGMHWVRQAPGKGLEWVAVIWYDGRNKYYADSVKGRFTISRDNSKNTLYLQMNSLRAEDTAVYYCARDVAPAGSRAEYFQNWGQGTLVTVSS
VL: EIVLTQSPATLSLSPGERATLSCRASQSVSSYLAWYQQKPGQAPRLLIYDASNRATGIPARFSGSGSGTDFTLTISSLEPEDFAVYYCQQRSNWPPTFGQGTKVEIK
notes: also called anti-PTK7 antibody 2A5
For the molecule B5, the MFI in test [1] was 95900; in test [2], 283000; in test [3] it was 76400.

B6: 2D11 (antibody, V domains shown)
VH: QVQLVESGGGVVQPGRSLRLSCAASGFTFSSYGMHWVRQAPGKGLEWVAVIFYDGSNKYYADSVKGRFTISRDNSKNTLYLQMNSLRAEDTSVYYCARDVAAPGSRAEYFQNWGQGTLVTVSS
VL: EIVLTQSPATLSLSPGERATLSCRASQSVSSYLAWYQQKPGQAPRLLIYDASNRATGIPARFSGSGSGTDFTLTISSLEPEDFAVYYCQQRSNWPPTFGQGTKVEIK
notes: also called anti-PTK7 antibody 2D11
For the molecule B6, the results for the MFI in test [1], in test [2] and in test [3] were 106000, 371000 and 72200, respectively.

B7: 3C4 (antibody, V domains shown)
VH: QVQLEQSRAEVKKPGESLRISCKGSGYSFTSYWISWVRQMPGKGLEWMGRIDPSDSYTNYNPSFQGHVTISADKSISTAYLQWSSLKASDTAMYYCARRDGSYFDFDYWGQGTLVTVSS
VL: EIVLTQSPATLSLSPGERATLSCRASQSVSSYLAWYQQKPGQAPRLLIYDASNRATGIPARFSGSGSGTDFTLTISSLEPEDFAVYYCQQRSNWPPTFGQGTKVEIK
notes: also called anti-PTK7 antibody 3C4
As for B7, the values for the MFI in test [1], in test [2] and in test [3] were 34600, 304000 and 37400, respectively.

B8: 3E6 (antibody, V domains shown)
VH: QVQLVESGAEVKKPGESLRISCRGSGYSFTSYWISWVRQMPGKGLEWMGRIDPSDSYTKYSPSFQGHVTISADKSISTAYLQWSSLKASDTAMYYCARRDGDYFDFDYWGQGTLVTVSS
VL: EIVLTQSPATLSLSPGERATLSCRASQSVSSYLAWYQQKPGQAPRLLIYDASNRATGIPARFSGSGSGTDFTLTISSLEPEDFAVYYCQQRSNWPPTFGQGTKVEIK
notes: also called anti-PTK7 antibody 3E6
As for B8, the MFI in test [1] was 86300; in test [2] it was 373000; in test [3], 94500.
